Experiments:
[1] = tested on: SST2 CNiFERs implanted in mouse cortex; assay: SST volume transmission in vivo, core-satellite SST2 CNiFER implants; details: normal mouse cortex; distance less than 130 μm
[2] = cited from earlier work
[3] = target: SST2 receptor (hSSTR2) in SST2 CNiFER clone #5F3 (Homo sapiens, UniProt P30874); assay: SST2 CNiFER FRET response, plate reader; format: cell-based; details: 1000 nM; n = 3-6
[4] = Integrative optical imaging; format: physicochemical; details: IOI, 0.3% dilute agarose gel in PBS; 31°C; n=30 records; Mean ± S.D.; SD
[5] = tested on: hyaluronan in mouse brain cortex; assay: HABP immunostaining after intraventricular hyaluronidase; format: in vivo; details: two days after hyase injection, n = 5 slices
[6] = cited from earlier work; remark: listed apart in the source

SST2 receptor (hSSTR2) in SST2 CNiFER clone #5F3, sequence (P30874 whole entry): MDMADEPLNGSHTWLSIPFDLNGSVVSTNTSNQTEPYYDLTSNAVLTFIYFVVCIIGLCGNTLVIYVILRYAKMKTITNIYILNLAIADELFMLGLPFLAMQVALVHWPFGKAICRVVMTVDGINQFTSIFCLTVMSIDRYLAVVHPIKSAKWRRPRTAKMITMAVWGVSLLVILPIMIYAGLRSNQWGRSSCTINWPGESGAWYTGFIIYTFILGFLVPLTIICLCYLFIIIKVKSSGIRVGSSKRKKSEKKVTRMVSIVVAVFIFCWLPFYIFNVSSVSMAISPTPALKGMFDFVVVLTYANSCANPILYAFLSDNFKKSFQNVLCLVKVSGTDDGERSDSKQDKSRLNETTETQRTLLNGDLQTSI

## C[C@H](N)C(=O)NCC(=O)N[C@H]1CSSC[C@@H](C(=O)O)NC(=O)[C@H](CO)NC(=O)[C@H]([C@@H](C)O)NC(=O)[C@H](Cc2ccccc2)NC(=O)[C@H]([C@@H](C)O)NC(=O)[C@H](CCCCN)NC(=O)[C@H](Cc2c[nH]c3ccccc23)NC(=O)[C@H](Cc2ccccc2)NC(=O)[C@H](Cc2ccccc2)NC(=O)[C@H](CC(N)=O)NC(=O)[C@H](CCCCN)NC1=O [SST, Somatostatin-14]
[1]
  time to activate SST2 CNiFERs: below 10 s
[2]
  half-life in plasma: 1 to 3 min

## CC(=O)OCC[N+](C)(C)C [acetylcholine]
[3]
  FRET response of SST2 CNiFERs: small response

## Fluorescein-5(6)-carbonyl-somatostatin-14 [5(6)-FAM-SST]
[4]
  free diffusion coefficient (D): (3.00 ± 0.18) × 10^-6 cm^2•s^-1

## hyaluronidase
[5]
  cell nuclei number or size in cortex compared with control group: no differences

## oxytocin
[6]
  half-life in brain cerebrospinal fluid (CSF): ~ 20 mins

## vasopressin
[6]
  half-life in brain cerebrospinal fluid (CSF): ~ 20 mins

From article doi:10.1101/2021.09.10.459853v1 (bioRxiv, 2021)
